Experimental data taken from patent US20140087995A1 (published 2014).
Like-named read-outs stand apart in the source and are kept apart here. Numbered stars: 1 amine (or outer) side, 2 acyl side, 3 side chain; on linkers, the order of the positions; unused ones are H or OH. Bridge positions count the residues as written; N and C are the ends. Side chains are listed from the residue outwards. Ends that are not written are not given here. * marks the point of attachment. C20 diacid = O=C(O)CCCCCCCCCCCCCCCCCCC(=O)*; γGlu = O=C(O)[C@H](CCC(=O)[*:2])N[*:1]; AEEA = NCCOCCOCC(=O)O

Columns and labels:
Experiment in all cases: cell-based or functional assay
[1] = molecular target: T1, human calcitonin receptor (human, UniProt P30988 25-474)
T1 sequence (looked up): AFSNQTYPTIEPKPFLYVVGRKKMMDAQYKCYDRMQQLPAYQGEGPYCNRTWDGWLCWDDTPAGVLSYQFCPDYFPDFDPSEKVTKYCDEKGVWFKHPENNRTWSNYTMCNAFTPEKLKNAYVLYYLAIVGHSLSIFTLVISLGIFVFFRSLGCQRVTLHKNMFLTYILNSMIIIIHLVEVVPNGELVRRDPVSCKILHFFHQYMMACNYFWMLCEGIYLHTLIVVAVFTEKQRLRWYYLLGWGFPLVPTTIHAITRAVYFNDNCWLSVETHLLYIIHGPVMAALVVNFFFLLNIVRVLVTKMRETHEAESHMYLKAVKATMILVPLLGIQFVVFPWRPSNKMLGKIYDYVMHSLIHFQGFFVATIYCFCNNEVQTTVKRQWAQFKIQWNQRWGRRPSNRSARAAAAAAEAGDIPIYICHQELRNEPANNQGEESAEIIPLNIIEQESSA

[2] = molecular target: T2, human amylin receptor (amylin 3(a) receptor: human calcitonin receptor plus RAMP-3) (human, UniProt P30988 25-474; O60896 24-148, limits assumed)
T2 sequence (looked up) 1: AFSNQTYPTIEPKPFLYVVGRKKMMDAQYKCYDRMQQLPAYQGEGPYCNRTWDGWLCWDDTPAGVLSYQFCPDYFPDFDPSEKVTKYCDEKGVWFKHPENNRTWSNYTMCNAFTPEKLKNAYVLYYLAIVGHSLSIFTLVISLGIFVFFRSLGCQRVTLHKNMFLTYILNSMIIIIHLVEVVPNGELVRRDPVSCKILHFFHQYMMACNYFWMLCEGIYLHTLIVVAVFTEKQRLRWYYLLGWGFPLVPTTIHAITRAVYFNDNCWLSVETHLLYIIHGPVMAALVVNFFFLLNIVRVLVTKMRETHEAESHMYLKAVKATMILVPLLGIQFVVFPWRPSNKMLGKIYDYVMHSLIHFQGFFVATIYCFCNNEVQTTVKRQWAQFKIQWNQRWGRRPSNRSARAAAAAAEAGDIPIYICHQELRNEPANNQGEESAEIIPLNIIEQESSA
T2 sequence (looked up) 2: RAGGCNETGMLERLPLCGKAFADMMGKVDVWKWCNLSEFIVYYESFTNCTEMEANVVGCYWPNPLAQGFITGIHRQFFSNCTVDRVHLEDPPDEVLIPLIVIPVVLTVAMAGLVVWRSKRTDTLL

[3] = molecular target: T3, human calcitonin receptor (human, UniProt P30988 25-474); remark: listed apart in the source
T3 sequence (looked up): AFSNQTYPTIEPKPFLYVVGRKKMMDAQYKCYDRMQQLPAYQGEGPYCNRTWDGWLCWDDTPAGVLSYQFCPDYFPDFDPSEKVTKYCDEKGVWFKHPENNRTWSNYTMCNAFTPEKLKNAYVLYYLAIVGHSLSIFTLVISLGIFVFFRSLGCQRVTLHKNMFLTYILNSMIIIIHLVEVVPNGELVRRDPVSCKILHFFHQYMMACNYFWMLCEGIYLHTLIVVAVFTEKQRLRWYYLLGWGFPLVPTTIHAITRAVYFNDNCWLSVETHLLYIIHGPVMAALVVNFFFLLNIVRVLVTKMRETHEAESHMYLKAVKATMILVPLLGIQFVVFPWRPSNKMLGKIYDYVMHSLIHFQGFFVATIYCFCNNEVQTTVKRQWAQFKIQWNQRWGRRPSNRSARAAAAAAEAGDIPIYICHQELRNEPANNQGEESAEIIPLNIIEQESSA

Row | Binder | hCTR funct. EC50 [1] [nM] | Ratio hCT/hAmylin funct. [2] [ratio] | hAmylin-R funct. EC50 [2] [nM] | hCTR funct. EC50 [3] [nM]
1 | K([AEEA-γGlu-C20 diacid])RCNTATCATQRLANFLRHSSPNFGAIPSSTNVGSHTY-NH2 (disulfide 3-8; N-terminus assumed; SMILES CC[C@H](C)[C@H](NC(=O)[C@H](C)NC(=O)CNC(=O)[C@H](Cc1ccccc1)NC(=O)[C@H](CC(N)=O)NC(=O)[C@@H]1CCCN1C(=O)[C@H](CO)NC(=O)[C@H](CO)NC(=O)[C@H](Cc1c[nH]cn1)NC(=O)[C@H](CCCNC(=N)N)NC(=O)[C@H](CC(C)C)NC(=O)[C@H](Cc1ccccc1)NC(=O)[C@H](CC(N)=O)NC(=O)[C@H](C)NC(=O)[C@H](CC(C)C)NC(=O)[C@H](CCCNC(=N)N)NC(=O)[C@H](CCC(N)=O)NC(=O)[C@@H](NC(=O)[C@H](C)NC(=O)[C@@H]1CSSC[C@H](NC(=O)[C@H](CCCNC(=N)N)NC(=O)[C@@H](N)CCCCNC(=O)COCCOCCNC(=O)CC[C@H](NC(=O)CCCCCCCCCCCCCCCCCCC(=O)O)C(=O)O)C(=O)N[C@@H](CC(N)=O)C(=O)N[C@@H]([C@@H](C)O)C(=O)N[C@@H](C)C(=O)N[C@@H]([C@@H](C)O)C(=O)N1)[C@@H](C)O)C(=O)N1CCC[C@H]1C(=O)N[C@@H](CO)C(=O)N[C@@H](CO)C(=O)N[C@H](C(=O)N[C@@H](CC(N)=O)C(=O)N[C@H](C(=O)NCC(=O)N[C@@H](CO)C(=O)N[C@@H](Cc1c[nH]cn1)C(=O)N[C@H](C(=O)N[C@@H](Cc1ccc(O)cc1)C(N)=O)[C@@H](C)O)C(C)C)[C@@H](C)O, h-amylin derivative, N-terminally extended by one residue; disulfide bridge and C-terminal amide as told for human amylin; also called compound 45) | 10.1 |  |  | 
2 | KCNTATCATQRLANFLRHSSPNFGAIPSSTNVGSNTY (C20 diacid-gGlu-2xOEG on the alpha amino group of the N-terminal residue; disulfide bridge Cys2-Cys7; C-terminal amide, Synthetic acylated analogue of human amylin; also called compound 24) |  | 23.1 | 0.433 | 10
3 | KCNTATCATQRLANFLRHSSPNFGAIPSSTNVGSETY (C20 diacid-gGlu on the alpha amino group of the N-terminal residue; disulfide bridge Cys2-Cys7; C-terminal amide, Synthetic acylated analogue of human amylin; also called compound 23) [N^α1-[(4S)-4-carboxy-4-(19-carboxynonadecanoylamino)butanoyl]-[Arg17,Pro21,Pro27,Glu35]-h-amylin] |  | 8.9 | 0.34 | 3.02
4 | {C20 diacid-γGlu}-KCNTATCATQRLAEFLRHSSPNFGAIPSSTNVGSRTY-NH2 (disulfide 2-7; SMILES CC[C@H](C)[C@H](NC(=O)[C@H](C)NC(=O)CNC(=O)[C@H](Cc1ccccc1)NC(=O)[C@H](CC(N)=O)NC(=O)[C@@H]1CCCN1C(=O)[C@H](CO)NC(=O)[C@H](CO)NC(=O)[C@H](Cc1c[nH]cn1)NC(=O)[C@H](CCCNC(=N)N)NC(=O)[C@H](CC(C)C)NC(=O)[C@H](Cc1ccccc1)NC(=O)[C@H](CCC(=O)O)NC(=O)[C@H](C)NC(=O)[C@H](CC(C)C)NC(=O)[C@H](CCCNC(=N)N)NC(=O)[C@H](CCC(N)=O)NC(=O)[C@@H](NC(=O)[C@H](C)NC(=O)[C@@H]1CSSC[C@H](NC(=O)[C@H](CCCCN)NC(=O)CC[C@H](NC(=O)CCCCCCCCCCCCCCCCCCC(=O)O)C(=O)O)C(=O)N[C@@H](CC(N)=O)C(=O)N[C@@H]([C@@H](C)O)C(=O)N[C@@H](C)C(=O)N[C@@H]([C@@H](C)O)C(=O)N1)[C@@H](C)O)C(=O)N1CCC[C@H]1C(=O)N[C@@H](CO)C(=O)N[C@@H](CO)C(=O)N[C@H](C(=O)N[C@@H](CC(N)=O)C(=O)N[C@H](C(=O)NCC(=O)N[C@@H](CO)C(=O)N[C@@H](CCCNC(=N)N)C(=O)N[C@H](C(=O)N[C@@H](Cc1ccc(O)cc1)C(N)=O)[C@@H](C)O)C(C)C)[C@@H](C)O, Synthetic acylated analogue of human amylin; also called compound 16) |  | 6.1 | 0.363 | 2.21
5 | KCNTATCATQRLANFLRHSSPNFGAIPSSTNVGRNTY (C20 diacid-gGlu on the alpha amino group of the N-terminal residue; disulfide bridge Cys2-Cys7; C-terminal amide, Synthetic acylated analogue of human amylin; also called compound 39) [N^α1-[(4S)-4-carboxy-4-(19-carboxynonadecanoylamino)butanoyl]-[Arg17,Pro21,Pro27,Arg34]-h-amylin] |  | 11.6 | 0.217 | 2.52
